How the values were obtained:
Format in all cases: biochemical
[1] = Specific activity of the purified MAO mutant active fraction against amylamine; conditions: active fraction after QSepharose, protein 1 mg·ml^−1
Experimental: LB medium (6×300 ml) containing ampicillin (100 μg·ml^−1) in 1 L baffled flasks was inoculated with a single colony of monoamine oxidase mutant from an LB agar plate. Cultures were incubated at 30° C. for 22 hours (OD600˜3.6) then harvested and washed with phosphate buffer (50 mM, pH 8) to yield a yellow-brown pellet (11.2 g).
The pellet was resuspended in Tris/HCl buffer (25 mM, pH 7.8, 30 ml) and sonicated on ice (30 s on, 30 s off for 10 minutes). The suspension was then centrifuged (20,000 rpm, 4° C.) until clear supernatant was obtained and the supernatant dialysed against Tris/HCl buffer (25 mM, pH 7.8). The cell free extract was filtered through 0.45 μm sterile membrane and chromatographed on a QSepharose anion exchange column. Fractions were assayed using colorimetric hydrogen peroxide based assay and active fractions were stored at −80° C. The active fraction has a protein content of 1 mg·ml^−1, and a specific activity of 0.193 U·mg^−1 against amylamine. […]
The spectrophotometer was blanked against assay mixture and HRP. Enzyme was added and the absorbance at 500 nm measured at 3 s intervals for a 10 minute period.

[2] = Specific activities of partially purified MAO WT and MAOArg259/260 towards amylamine
Experimental: MAO WT and MAOArg259/260 were partially purified from recombinant E. coli BL21(DE3) harbouring a pET16b carrying the corresponding mao-n gene. Cell free extracts were prepared by sonication and the specific activities of MAO WT and MAOArg259/260 towards AA were measured for both the soluble and insoluble fractions. (Table 3)

[3] = Cell free extracts assayed towards L-AMBA; conditions: 240 minutes
Experimental: To 895 ul Assay Mixture was Added: • 5 μl HRP (Sigma, P6782) (1 mg/ml)
Sample (100 μl) was added and absorbance at 510 nm measured after 24 hours against a control without sample.
This was achieved by incubating 50 μl of each sample for 240 minutes and specific activities were determined. (Table 4)

Molecule	specific activity against amylamine [1] [U·mg^−1]	Total activity [2] [U]	Insoluble fraction specific activity ([2]; insoluble fraction) [U · mg^−1]	Soluble fraction specific activity ([2]; soluble fraction) [U · mg^−1]	ΔAbs 510 nm ([3]; 50 μl sample)	Soluble fraction specific activity [3]
MAO mutant: A. niger monoamine oxidase variant with serine replacing asparagine at position 336 (SEQ ID NO: 2) (protein, Variant monoamine oxidase enzyme generated by direct evolution) MTSRDGYQWTPETGLTQGVPSLGVISPPTNIEDTDKDGPWDVIVIGGGYCGLTATRDLTVAGFKTLLLEARDRIGGRSWSSNIDGYPYEMGGTWVHWHQSHVWREITRYKMHNALSPSFNFSRGVNHFQLRTNPTTSTYMTHEAEDELLRSALHKFTNVDGTNGRTVLPFPHDMFYVPEFRKYDEMSYSERIDQIRDELSLNERSSLEAFILLCSGGTLENSSFGEFLHWWAMSGYTYQGCMDCLISYKFKDGQSAFARRFWEEAAGTGRLGYVFGCPVRSVVNERDAARVTARDGREFVAKRVVCTIPLNVLSTIQFSPALSTERISAMQAGHVSMCTKVHAEVDNMDMRSWTGIAYPFNKLCYAIGDGTTPAGNTHLVCFGTDANHIQPDEDVRETLKAVGQLAPGTFGVKRLVFHNWVKDEFAKGAWFFSRPGMVSECLQGLREKHGGVVFANSDWALGWRSFIDGAIEEGTRAARVVLEELGTKREVKARL	0.193	–	–	–	–	–
MAO WT: wild-type Aspergillus niger monoamine oxidase (SEQ ID NO:1) expressed in E. coli BL21(DE3) (protein, Aspergillus niger) MTSRDGYQWTPETGLTQGVPSLGVISPPTNIEDTDKDGPWDVIVIGGGYCGLTATRDLTVAGFKTLLLEARDRIGGRSWSSNIDGYPYEMGGTWVHWHQSHVWREITRYKMHNALSPSFNFSRGVNHFQLRTNPTTSTYMTHEAEDELLRSALHKFTNVDGTNGRTVLPFPHDMFYVPEFRKYDEMSYSERIDQIRDELSLNERSSLEAFILLCSGGTLENSSFGEFLHWWAMSGYTYQGCMDCLISYKFKDGQSAFARRFWEEAAGTGRLGYVFGCPVRSVVNERDAARVTARDGREFVAKRVVCTIPLNVLSTIQFSPALSTERISAMQAGHVNMCTKVHAEVDNMDMRSWTGIAYPFNKLCYAIGDGTTPAGNTHLVCFGTDANHIQPDEDVRETLKAVGQLAPGTFGVKRLVFHNWVKDEFAKGAWFFSRPGMVSECLQGLREKHGGVVFANSDWALGWRSFIDGAIEEGTRAARVVLEELGTKREVKARL	–	0.57	0.33	0.23	0.06	3.6 × 10^−5 U · mg^−1

— US8178324B2, “Deracemisation of amines” (Ingenza Limited, priority 2002, dated 2012)
